Holding throughout (experiment): cell_activity; CHO iGFFP reporter
Data set [1] has as its target T1, LOX 3-4 m.186 (artificial (I-CreI derived)).
T1 chain: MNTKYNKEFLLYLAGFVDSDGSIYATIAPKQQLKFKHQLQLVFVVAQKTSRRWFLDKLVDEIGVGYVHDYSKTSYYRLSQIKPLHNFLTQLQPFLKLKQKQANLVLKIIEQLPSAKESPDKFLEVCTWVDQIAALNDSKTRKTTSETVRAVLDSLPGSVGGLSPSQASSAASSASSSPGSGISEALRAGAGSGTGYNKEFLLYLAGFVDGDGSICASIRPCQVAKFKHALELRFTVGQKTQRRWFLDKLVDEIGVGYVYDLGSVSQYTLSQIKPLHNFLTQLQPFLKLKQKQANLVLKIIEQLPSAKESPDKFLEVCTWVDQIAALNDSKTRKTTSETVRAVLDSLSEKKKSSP
The source says: (§1) A CHO cell reporter system (see WO/2012/167192, FIG. 3) was used to determine whether the engineered meganucleases generated in these studies could recognize and cleave the modified LOX 3-4 recognition sequences in Table 87. To perform the assay, a pair of CHO cell reporter lines were produced, which carried a non-functional Green Fluorescent Protein (GFP) gene expression cassette integrated into the genome of the cell. The GFP gene in each cell line was interrupted by a pair of recognition sequences such that intracellular cleavage of either recognition sequence by a meganuclease would stimulate a homologous recombination event resulting in a functional GFP gene. In both cell lines, one of the recognition sequences was derived from the LOX 3-4 recognition sequence (i.e., those sequences disclosed in Table 87), and the second recognition sequence was specifically recognized by a control meganuclease called “CHO 23/24.” CHO reporter cells comprising a recognition sequence derived from the LOX 3-4 recognition sequence and the CHO 23/24 recognition sequence are referred to herein as “test cells.”
(§2) Novel engineered meganucleases derived from the LOX 3-4x.109 meganuclease were prepared by making amino acid substitutions at one or more positions in the first subunit. These engineered meganucleases were then evaluated for cleavage of the LOX 3-4 recognition sequence modified to have a GTGC center sequence (SEQ ID NO: 463) in the CHO reporter assay according to Example 1. Novel meganucleases which were modified to comprise the residues recited in the tables below were capable of cleaving the LOX 3-4 recognition sequence having a GTGC four base pair center sequence.

Data set [2] has as its target T2, LOX 3-4 m.181 (artificial (I-CreI derived)).
T2 chain: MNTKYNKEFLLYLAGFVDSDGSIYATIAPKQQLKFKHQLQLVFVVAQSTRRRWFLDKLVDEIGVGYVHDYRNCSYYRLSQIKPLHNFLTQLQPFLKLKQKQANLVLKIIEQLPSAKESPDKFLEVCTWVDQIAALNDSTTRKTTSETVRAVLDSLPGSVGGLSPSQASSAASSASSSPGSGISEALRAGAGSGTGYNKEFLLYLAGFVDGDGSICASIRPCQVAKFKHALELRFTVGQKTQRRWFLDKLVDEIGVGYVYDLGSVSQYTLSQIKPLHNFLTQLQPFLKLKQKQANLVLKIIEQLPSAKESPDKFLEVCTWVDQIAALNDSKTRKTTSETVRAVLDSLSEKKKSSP
Text: as §1, §2

Data set [3] deals with T3, LOX 3-4 m.180 (artificial (I-CreI derived)).
T3 chain: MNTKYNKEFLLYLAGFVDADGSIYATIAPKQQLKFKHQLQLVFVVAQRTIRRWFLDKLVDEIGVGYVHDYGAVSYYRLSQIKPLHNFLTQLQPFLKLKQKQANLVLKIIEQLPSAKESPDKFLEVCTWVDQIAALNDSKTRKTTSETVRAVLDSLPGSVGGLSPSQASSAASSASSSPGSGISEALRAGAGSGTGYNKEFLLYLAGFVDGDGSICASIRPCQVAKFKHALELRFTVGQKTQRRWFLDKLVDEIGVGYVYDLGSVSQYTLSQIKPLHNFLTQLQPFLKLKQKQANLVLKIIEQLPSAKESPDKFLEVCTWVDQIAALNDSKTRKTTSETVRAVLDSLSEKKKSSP
Text: as §1, §2

The target in data set [4] is T4, LOX 3-4m.788 (artificial (I-CreI derived)).
T4 chain: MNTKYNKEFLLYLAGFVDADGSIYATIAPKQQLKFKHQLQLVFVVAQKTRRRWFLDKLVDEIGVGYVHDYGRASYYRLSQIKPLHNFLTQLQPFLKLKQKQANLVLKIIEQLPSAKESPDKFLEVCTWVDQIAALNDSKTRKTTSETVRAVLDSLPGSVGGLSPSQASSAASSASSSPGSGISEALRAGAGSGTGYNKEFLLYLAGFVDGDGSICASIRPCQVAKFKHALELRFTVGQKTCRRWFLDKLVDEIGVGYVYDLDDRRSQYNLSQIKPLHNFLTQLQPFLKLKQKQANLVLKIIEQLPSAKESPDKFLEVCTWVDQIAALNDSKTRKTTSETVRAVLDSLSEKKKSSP
Text: as §1
(§3) Novel engineered meganucleases derived from the LOX 3-4x.109 meganuclease were prepared by making amino acid substitutions at one or more positions in the first subunit and one or more positions in the second subunit. In addition, two engineered meganucleases were generated that inserted an additional R residue following position 264, which corresponds to position 73 of wild-type I-CreI. These engineered meganucleases were then evaluated for cleavage of the LOX 3-4 recognition sequence modified to have an ACAG center sequence (SEQ ID NO: 34) in the CHO reporter assay according to Example 1.

In data set [5] the target is T5, LOX 3-4m.775 (artificial (I-CreI derived)).
T5 chain: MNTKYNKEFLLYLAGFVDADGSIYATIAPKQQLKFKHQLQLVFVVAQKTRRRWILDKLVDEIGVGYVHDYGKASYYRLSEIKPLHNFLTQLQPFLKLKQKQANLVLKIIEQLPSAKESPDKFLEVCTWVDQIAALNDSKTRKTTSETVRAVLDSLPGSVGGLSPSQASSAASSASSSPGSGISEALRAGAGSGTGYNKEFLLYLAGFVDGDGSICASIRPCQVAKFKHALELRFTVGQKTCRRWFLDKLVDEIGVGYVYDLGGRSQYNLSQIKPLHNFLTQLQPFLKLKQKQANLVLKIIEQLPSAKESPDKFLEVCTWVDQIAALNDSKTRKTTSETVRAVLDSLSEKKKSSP
Text: as §1, §3

Data set [6] concerns the target T6, LOX 3-4m.776 (artificial (I-CreI derived)).
T6 chain: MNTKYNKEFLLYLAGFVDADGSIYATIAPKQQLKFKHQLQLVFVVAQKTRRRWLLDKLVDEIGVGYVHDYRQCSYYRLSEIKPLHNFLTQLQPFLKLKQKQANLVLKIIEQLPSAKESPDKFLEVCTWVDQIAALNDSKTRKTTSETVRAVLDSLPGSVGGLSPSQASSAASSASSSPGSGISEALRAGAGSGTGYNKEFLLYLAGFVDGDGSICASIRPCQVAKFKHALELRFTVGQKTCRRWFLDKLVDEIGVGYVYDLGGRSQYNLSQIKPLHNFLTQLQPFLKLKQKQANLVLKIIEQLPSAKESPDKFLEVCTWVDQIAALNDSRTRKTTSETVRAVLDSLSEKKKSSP
Text: as §1, §3

For data set [7], the target named is T7, LOX 3-4m.856 (artificial (I-CreI derived)).
T7 chain: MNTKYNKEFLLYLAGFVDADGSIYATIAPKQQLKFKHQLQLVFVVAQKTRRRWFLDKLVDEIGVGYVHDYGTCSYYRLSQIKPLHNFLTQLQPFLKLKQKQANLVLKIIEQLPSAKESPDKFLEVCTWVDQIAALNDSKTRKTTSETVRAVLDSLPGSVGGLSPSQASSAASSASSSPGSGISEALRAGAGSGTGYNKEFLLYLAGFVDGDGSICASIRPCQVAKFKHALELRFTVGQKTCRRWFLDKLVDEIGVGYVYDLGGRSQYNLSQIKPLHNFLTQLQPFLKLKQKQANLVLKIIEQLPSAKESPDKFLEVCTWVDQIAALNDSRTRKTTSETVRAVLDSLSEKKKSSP
Text: as §1, §3

Data set [8] has as its target T8, LOX 3-4 m.203 (artificial (I-CreI derived)).
T8 chain: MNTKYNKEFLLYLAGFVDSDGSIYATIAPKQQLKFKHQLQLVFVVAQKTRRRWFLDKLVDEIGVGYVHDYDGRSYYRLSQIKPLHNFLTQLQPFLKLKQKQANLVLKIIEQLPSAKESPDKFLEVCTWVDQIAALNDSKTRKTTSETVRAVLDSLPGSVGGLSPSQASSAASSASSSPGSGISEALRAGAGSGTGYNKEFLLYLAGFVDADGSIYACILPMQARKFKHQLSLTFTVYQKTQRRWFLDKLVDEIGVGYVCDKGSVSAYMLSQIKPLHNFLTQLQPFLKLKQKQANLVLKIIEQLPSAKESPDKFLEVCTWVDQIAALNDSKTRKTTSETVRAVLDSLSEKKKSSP
Text: as §1
(§4) Novel engineered meganucleases derived from the LOX 3-4x.109 meganuclease were prepared by making amino acid substitutions at one or more positions in the first subunit. These engineered meganucleases were then evaluated for cleavage of the LOX 3-4 recognition sequence modified to have a GTGG center sequence (SEQ ID NO: 496) in the CHO reporter assay according to Example 1. Novel meganucleases which were modified to comprise the residues recited in the tables below were capable of cleaving the LOX 3-4 recognition sequence having a GTGG four base pair center sequence.

In data set [9] the target is T9, LOX 3-4 m.201 (artificial (I-CreI derived)).
T9 chain: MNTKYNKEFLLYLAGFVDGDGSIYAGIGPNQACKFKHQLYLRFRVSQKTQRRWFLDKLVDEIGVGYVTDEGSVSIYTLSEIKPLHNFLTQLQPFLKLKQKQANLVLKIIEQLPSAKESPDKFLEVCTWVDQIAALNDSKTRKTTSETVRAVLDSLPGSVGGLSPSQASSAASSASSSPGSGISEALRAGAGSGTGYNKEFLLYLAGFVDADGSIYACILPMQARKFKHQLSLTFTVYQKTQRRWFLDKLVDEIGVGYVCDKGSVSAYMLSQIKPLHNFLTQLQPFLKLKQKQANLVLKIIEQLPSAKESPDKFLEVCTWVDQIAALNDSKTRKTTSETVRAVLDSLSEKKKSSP
Text: as §1, §4

The target of data set [10] is T10, LOX 3-4 m.192 (artificial (I-CreI derived)).
T10 chain: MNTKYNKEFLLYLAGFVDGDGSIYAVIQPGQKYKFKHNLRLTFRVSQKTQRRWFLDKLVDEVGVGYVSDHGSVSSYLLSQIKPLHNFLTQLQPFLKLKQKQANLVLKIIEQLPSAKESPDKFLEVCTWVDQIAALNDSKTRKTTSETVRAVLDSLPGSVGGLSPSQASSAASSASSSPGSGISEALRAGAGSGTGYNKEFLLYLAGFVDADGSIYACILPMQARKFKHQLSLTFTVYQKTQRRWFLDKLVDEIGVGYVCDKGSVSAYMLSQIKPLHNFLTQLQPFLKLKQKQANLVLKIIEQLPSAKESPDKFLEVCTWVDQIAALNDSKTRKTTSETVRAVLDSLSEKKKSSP
Text: as §1, §4

Consider three molecules from patent US20220195407, “OPTIMIZATION OF ENGINEERED MEGANUCLEASES FOR RECOGNITION SEQUENCES” (Precision BioSciences, Inc., published 2022).

B1: LOX 3-4 GTGC (dsDNA)
DNA 1: GTATAGCATGTGCTATACGAAG
DNA 2: CTTCGTATAGCACATGCTATAC
For B1, the activity is 13.4 % GFP in data set [1], 13.8 % GFP in data set [2] and 13.7 % GFP in [3].

B2: LOX 3-4 ACAG (dsDNA)
DNA 1: GTATAGCATACAGTATACGAAG
DNA 2: CTTCGTATACTGTATGCTATAC
For the molecule B2, the activity in data set [4] came out at 10.5 % GFP; in data set [5] it was 12.2 % GFP; in data set [6], 10.4 % GFP; in [7], 10.8 % GFP.

B3: LOX 3-4 GTGG (dsDNA)
DNA 1: GTATAGCATGTGGTATACGAAG
DNA 2: CTTCGTATACCACATGCTATAC
For the molecule B3, the activity is 12.1 % GFP in data set [8], 11 % GFP in [9] and 11.9 % GFP in data set [10].
